The results in this text go back to US20050026839A1 (GENERAL HOSPITAL, published 2005).

The target of test [1] is T1, wild-type human PTH/PTHrP receptor (hP1R-WT) (human, UniProt Q03431 27-593).
T1 construct: whole, on cells; HKRK-B28 cells express ~280,000 receptors per cell; also called PTH-1 receptor; PTH-1R
T1 sequence (looked up): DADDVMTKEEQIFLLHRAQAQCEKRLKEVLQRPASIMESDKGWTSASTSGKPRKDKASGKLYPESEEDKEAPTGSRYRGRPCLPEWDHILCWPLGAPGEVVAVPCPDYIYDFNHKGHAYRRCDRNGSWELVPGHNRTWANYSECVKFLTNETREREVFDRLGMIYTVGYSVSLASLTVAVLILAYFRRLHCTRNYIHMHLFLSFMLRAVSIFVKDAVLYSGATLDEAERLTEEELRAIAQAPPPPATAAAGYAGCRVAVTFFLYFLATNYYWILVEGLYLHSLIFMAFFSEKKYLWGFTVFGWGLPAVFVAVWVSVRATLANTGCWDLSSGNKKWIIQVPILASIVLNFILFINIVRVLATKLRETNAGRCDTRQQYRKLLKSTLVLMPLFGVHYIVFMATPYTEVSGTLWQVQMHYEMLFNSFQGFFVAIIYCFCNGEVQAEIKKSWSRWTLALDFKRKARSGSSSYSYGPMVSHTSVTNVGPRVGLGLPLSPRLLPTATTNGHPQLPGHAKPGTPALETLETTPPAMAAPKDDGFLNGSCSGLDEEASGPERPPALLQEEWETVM
In words: radioligand binding to HKRK-B28 cells.

For test [2], the target named is T2, truncated human P1R deleted for residues (24-181) (hP1R-delNt) (human, UniProt Q03431 182-593).
T2 construct: whole, on cells; also called delNT receptor
T2 sequence (looked up): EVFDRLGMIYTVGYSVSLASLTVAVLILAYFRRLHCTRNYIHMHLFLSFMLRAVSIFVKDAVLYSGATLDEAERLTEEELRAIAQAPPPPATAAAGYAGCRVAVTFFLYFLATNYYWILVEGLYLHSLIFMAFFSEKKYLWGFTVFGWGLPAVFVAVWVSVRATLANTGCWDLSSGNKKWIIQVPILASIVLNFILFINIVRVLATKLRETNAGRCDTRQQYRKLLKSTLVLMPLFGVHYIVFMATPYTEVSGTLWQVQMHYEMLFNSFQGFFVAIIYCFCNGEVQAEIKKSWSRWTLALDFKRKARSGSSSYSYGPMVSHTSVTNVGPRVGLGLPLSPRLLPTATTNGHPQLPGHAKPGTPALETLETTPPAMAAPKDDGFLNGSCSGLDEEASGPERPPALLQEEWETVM
As to the kind of experiment: radioligand binding, COS-7 cells with P1R-delNt.

Square brackets hold non-standard residues; d marks the D form. Ends that are not written are not given here. hArg = N=C(N)NCCCC[C@H](N)C(=O)O; Nle = CCCC[C@H](N)C(=O)O

B1: ^125I-[Ala^3,12Nle^8Gln^10,Har^11,Trp^14,Tyr^15]PTH(1-15)amide (peptide)
peptide: AVAEIQL[Nle]HQ[hArg]AKWY-NH2
modifications: also: 125I radiolabel, iodinated residue not given here
On to B1, for which the binding result in test [1] is recorded as “no binding”.

B2: ^125I-[M]PTH(1-21) (peptide)
peptide: AVAEIQL[Nle]HQ[hArg]AKWLASVRRY-NH2
modifications: also: 125I radioiodinated, residue not given here
notes: Tracer radioligand
Regarding B2, the binding result in test [2] is reported as “no binding”.
